The values below come from patent US20220362357A1, “Synergistic Combinations of Amino Acid Depletion Agent Sensitizers (AADAS) and Amino Acid Depletion Agents (AADA), and Therapeutic Methods of Use Thereof” (STICHTING RADBOUD UNIVERSITAIR MEDISCH CENTRUM, priority 2018, published 2022).

In data set [1] the test system is Human Acute Lymphoblastic Leukemia blasts in NSG mice. The settings on record: for bodyweight: NSG mice, ibrutinib 25 mg/kg oral daily 9 days, ONCASPAR 300 IU/kg IV days 1, 4, 7. The protocol:
Procedure. The experimental design is schematized in FIG. 7A. Briefly, thirty-two (32) NOD.Cg-Prkdcscid I2rgtm1Wjl/SzJ (“NSG”) mice were injected intrafemorally with 500,000 leukemic blasts (2 injections/mouse) (Human Acute Lymphoblastic Leukemia). […] During and after treatment, mice were weighed weekly, and their welfare was evaluated daily. Blood samples were taken weekly for assessment of the leukemia burden. Termination was predefined with a leukemia burden reaching 50% leukemic blasts in peripheral blood as measured by flow cytometry or euthanasia because of overt signs of discomfort due to disease.
The primary outcome of this experiment was event-free survival, where event was defined as […]. Differences in event-free survival were analyzed using a Kaplan-Meier plot and significance was tested using the log-rank test.

For data set [2], the system named is 30 cell lines covering a variety of cancer cell types. Kind of data set: ApoTox-Glo Triplex Assay (viability, cytotoxicity, apoptosis), 3-4 days, panel. In kind it is cell-based. The settings on record: in still other cases. The protocol: Two incubation times were tested. […] Ibrutinib was the AADAS as detailed above.
Cell culture conditions. Adherent tumor cells were grown as monolayer at 37° C. in a humidified atmosphere (5% CO2, 95% air). […] The cells were counted and their viability assessed by 0.25% trypan blue exclusion assay.
Cell plating for 3 to 4 day incubation.
Each compound was tested alone at 6 doses.
Experiments were performed in duplicate.
Two protocols of incubation were performed: overnight and over 3/4 days as indicated.
The assay was performed as recommended by the manufacturer. […] The assay was performed as recommended by the manufacturer. […] Apoptosis was measured in luminescence.

Another data set has as its system HBP-ALL cells. In words: T-ALL cell line viability and cell death by amine exposure. It counts as cell-based, human. The conditions noted are these: 3 or 7 days.
In a further data set the test system is LOUCY cells. The data set is described as above. In kind it is cell-based, human. The conditions noted are these: 3 or 7 days.

Turning to `C=CC(=O)N1CCC[C@@H](n2nc(-c3ccc(Oc4ccccc4)cc3)c3c(N)ncnc32)C1` [ibrutinib, reference compound], the bodyweight entry in data set [1] was “mild and transient drop in bodyweight”. In addition, the “mice that reached the termination point (>50% leukemic blasts) after 10 weeks” value in data set [1] (weeks after transplantation) is 4/7.

B1: PEG-Asparaginase: E. coli-derived peg-conjugated ASNase, used in the in vivo studies (protein, UniProt P00805 23-348, looked up)
L-asparaginase 2: LPNITILATGGTIAGGGDSATKSNYTVGKVGVENLVNAVPQLKDIANVKGEQVVNIGSQDMNDNVWLTLAKKINTDCDKTDGFVITHGTDTMEETAYFLDLTVKCDKPVVMVGAMRPSTSMSADGPFNLYNAVVTAADKASANRGVLVVMNDTVLDGRDVTKTNTTDVATFKSVNYGPLGYIHNGKIDYQRTPARKHTSDTPFDVSKLNELPKVGIVYNYANASDLPAKALVDAGYDGIVSAGVGNGNLYKSVFDTLATAAKTGTAVVRSSRVPTGATTQDAEVDDAKYGFVASGTLNPQKARVLLQLALTQTKDPQQIQQIFNQY
modifications: PEG conjugate (pegaspargase)
Consider B1, for which the bodyweight entry in data set [1] is recorded as “strong but transient weight loss”. Further, the leukemia development entry in data set [1] (human leukemic blasts in blood by flow cytometry) is on record as “stronger delay in leukemia development”.

B2: …®: recombinantly produced E. coli ASNase, NCBI Ref Seq WP_000394140.1, ATC Code L01XX02 (protein, UniProt P00805 23-348, looked up)
L-asparaginase 2: B1 L-asparaginase 2
Consider B2, for which, in data set [2], the “resistance of the cells” value was “somewhat resistant”. Moreover, the “sensitivity, cell death by amine exposure” value in the data set on HBP-ALL cells and with LOUCY cells was “extremely sensitive” each time.
